# Laboratory results taken from patent publication US5478723A, “Method and apparatus for determining the role of cytochrome P450 and related enzymes in the metabolism of drugs and other chemicals” (priority 1993, dated 1995).
# Experiment: Storage stability of P450 enzymes in frozen human liver
# Assay type: physicochemical
# Details: human liver at -65 to -90 degrees C, up to six months
# Text: P450 enzymes in frozen liver microsomes appear to be relatively stable.
row,Molecule,degradation on storage
1,"CYP2A6: P450 enzyme in frozen human liver (protein, UniProt P11509 1-494, looked up) Cytochrome P450 2A6: MLASGMLLVALLVCLTVMVLMSVWQQRKSKGKLPPGPTPLPFIGNYLQLNTEQMYNSLMKISERYGPVFTIHLGPRRVVVLCGHDAVREALVDQAEEFSGRGEQATFDWVFKGYGVVFSNGERAKQLRRFSIATLRDFGVGKRGIEERIQEEAGFLIDALRGTGGANIDPTFFLSRTVSNVISSIVFGDRFDYKDKEFLSLLRMMLGIFQFTSTSTGQLYEMFSSVMKHLPGPQQQAFQLLQGLEDFIAKKVEHNQRTLDPNSPRDFIDSFLIRMQEEEKNPNTEFYLKNLVMTTLNLFIGGTETVSTTLRYGFLLLMKHPEVEAKVHEEIDRVIGKNRQPKFEDRAKMPYMEAVIHEIQRFGDVIPMSLARRVKKDTKFRDFFLPKGTEVYPMLGSVLRDPSFFSNPQDFNPQHFLNEKGQFKKSDAFVPFSIGKRNCFGEGLARMELFLFFTTVMQNFRLKSSQSPKDIDVSPKHVGFATIPRNYTMSFLPR",no detectable degradation
2,"CYP2E1: P450 enzyme in frozen human liver (protein, UniProt P05181 1-493, looked up) Cytochrome P450 2E1: MSALGVTVALLVWAAFLLLVSMWRQVHSSWNLPPGPFPLPIIGNLFQLELKNIPKSFTRLAQRFGPVFTLYVGSQRMVVMHGYKAVKEALLDYKDEFSGRGDLPAFHAHRDRGIIFNNGPTWKDIRRFSLTTLRNYGMGKQGNESRIQREAHFLLEALRKTQGQPFDPTFLIGCAPCNVIADILFRKHFDYNDEKFLRLMYLFNENFHLLSTPWLQLYNNFPSFLHYLPGSHRKVIKNVAEVKEYVSERVKEHHQSLDPNCPRDLTDCLLVEMEKEKHSAERLYTMDGITVTVADLFFAGTETTSTTLRYGLLILMKYPEIEEKLHEEIDRVIGPSRIPAIKDRQEMPYMDAVVHEIQRFITLVPSNLPHEATRDTIFRGYLIPKGTVVVPTLDSVLYDNQEFPDPEKFKPEHFLNENGKFKYSDYFKPFSTGKRVCAGEGLARMELFLLLCAILQHFNLKPLVDPKDIDLSPIHIGFGCIPPRYKLCVIPRS",no detectable degradation
3,"CYP2D6: P450 enzyme in frozen human liver (protein, UniProt P10635 1-497, looked up) Cytochrome P450 2D6: MGLEALVPLAVIVAIFLLLVDLMHRRQRWAARYPPGPLPLPGLGNLLHVDFQNTPYCFDQLRRRFGDVFSLQLAWTPVVVLNGLAAVREALVTHGEDTADRPPVPITQILGFGPRSQGVFLARYGPAWREQRRFSVSTLRNLGLGKKSLEQWVTEEAACLCAAFANHSGRPFRPNGLLDKAVSNVIASLTCGRRFEYDDPRFLRLLDLAQEGLKEESGFLREVLNAVPVLLHIPALAGKVLRFQKAFLTQLDELLTEHRMTWDPAQPPRDLTEAFLAEMEKAKGNPESSFNDENLRIVVADLFSAGMVTTSTTLAWGLLLMILHPDVQRRVQQEIDDVIGQVRRPEMGDQAHMPYTTAVIHEVQRFGDIVPLGVTHMTSRDIEVQGFRIPKGTTLITNLSSVLKDEAVWEKPFRFHPEHFLDAQGHFVKPEAFLPFSAGRRACLGEPLARMELFLFFTSLLQHFSFSVPTGQPRPSHHGVFAFLVSPSPYELCAVPR",no detectable degradation
4,"CYP1A2: P450 enzyme in frozen human liver (protein, UniProt P05177 2-516, looked up) Cytochrome P450 1A2: ALSQSVPFSATELLLASAIFCLVFWVLKGLRPRVPKGLKSPPEPWGWPLLGHVLTLGKNPHLALSRMSQRYGDVLQIRIGSTPVLVLSRLDTIRQALVRQGDDFKGRPDLYTSTLITDGQSLTFSTDSGPVWAARRRLAQNALNTFSIASDPASSSSCYLEEHVSKEAKALISRLQELMAGPGHFDPYNQVVVSVANVIGAMCFGQHFPESSDEMLSLVKNTHEFVETASSGNPLDFFPILRYLPNPALQRFKAFNQRFLWFLQKTVQEHYQDFDKNSVRDITGALFKHSKKGPRASGNLIPQEKIVNLVNDIFGAGFDTVTTAISWSLMYLVTKPEIQRKIQKELDTVIGRERRPRLSDRPQLPYLEAFILETFRHSSFLPFTIPHSTTRDTTLNGFYIPKKCCVFVNQWQVNHDPELWEDPSEFRPERFLTADGTAINKPLSEKMMLFGMGKRRCIGEVLAKWEIFLFLAILLQQLEFSVPPGVKVDLTPIYGLTMKHARCEHVQARLRFSIN",no detectable degradation
